Experimental data: patent publication US20170119861

Assays:
[1] = target: synthetic Aβ40 peptide, P05067
[2] = target: Aβ40 high molecular weight fibrils, P05067
[3] = target: synthetic Aβ42 peptide, P05067
synthetic Aβ42 peptide, P05067, sequence (P05067 whole entry, looked up, tested part not stated): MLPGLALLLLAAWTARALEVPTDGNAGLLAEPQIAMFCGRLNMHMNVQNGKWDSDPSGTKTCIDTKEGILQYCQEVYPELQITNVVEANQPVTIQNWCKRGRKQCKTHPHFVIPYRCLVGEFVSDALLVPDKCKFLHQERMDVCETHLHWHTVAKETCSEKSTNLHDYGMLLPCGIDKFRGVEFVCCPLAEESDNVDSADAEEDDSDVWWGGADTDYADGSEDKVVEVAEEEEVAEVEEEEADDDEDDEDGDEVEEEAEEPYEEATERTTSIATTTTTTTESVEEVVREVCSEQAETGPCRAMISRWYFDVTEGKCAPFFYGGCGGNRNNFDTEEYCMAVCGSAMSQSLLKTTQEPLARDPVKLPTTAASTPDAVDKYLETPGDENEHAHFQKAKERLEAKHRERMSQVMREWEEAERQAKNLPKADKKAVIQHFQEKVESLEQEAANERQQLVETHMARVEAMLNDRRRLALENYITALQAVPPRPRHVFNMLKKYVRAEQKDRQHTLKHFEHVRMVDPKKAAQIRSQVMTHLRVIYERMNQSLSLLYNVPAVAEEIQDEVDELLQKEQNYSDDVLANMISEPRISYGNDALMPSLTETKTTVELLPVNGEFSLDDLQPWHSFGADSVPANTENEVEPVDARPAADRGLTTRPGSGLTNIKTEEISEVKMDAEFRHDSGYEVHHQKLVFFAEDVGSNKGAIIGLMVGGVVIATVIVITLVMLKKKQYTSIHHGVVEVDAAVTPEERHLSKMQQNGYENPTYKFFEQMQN

synthetic Aβ40 peptide, P05067, sequence (P05067 whole entry, looked up, tested part not stated): as above
Aβ40 high molecular weight fibrils, P05067, sequence (P05067 whole entry, looked up): as the sequence (P05067 whole entry, looked up, tested part not stated) above
Aβ42 fibrils, P05067, sequence (P05067 whole entry, looked up): as the sequence (P05067 whole entry, looked up, tested part not stated) above
Aβ42 oligomers, P05067, sequence (P05067 whole entry, looked up): as the sequence (P05067 whole entry, looked up, tested part not stated) above

B1: protective protein/cathepsin A (PPCA) (protein)
chain: APDQDEIQRLPGLAKQPSFRQYSGYLKGSGSKHLHYWFVESQKDPENSPVVLWLNGGPGCSSLDGLLTEHGPFLVQPDGVTLEYNPYSWNLIANVLYLESPAGVGFSYSDDKFYATNDTEVAQSNFEALQDFFRLFPEYKNNKLFLTGESYAGIYIPTLAVLVMQDPSMNLQGLAVGNGLSSYEQNDNSLVYFAYYHGLLGNRLWSSLQTHCCSQNKCNFYDNKDLECVTNLQEVARIVGNSGLNIYNLYAPCAGGVPSHFRYEKDTVVVQDLGNIFTRLPLKRMWHQALLRSGDKVRMDPPCTNTTAASTYLNNPYVRKALNIPEQLPQWDMCNFLVNLQYRRLYRSMNSQYLKLLSSQKYQILLYNGDVDMACNFMGDEWFVDSLNQKMEVQRRPWLVKYGDSGEQIAGFVKEFSHIAFLTIKGAGHMVPTDKPLAAFTMFSRFLNKQPY
- ELISA with C-terminal capture antibody after 2 h incubation of Aβ40 with varying Cath A concentrations [1]: progressively reduced binding of Aβ40 peptide to C-terminal capture antibody with increasing concentration of Cath A
- THT aggregation of Aβ40 after pre-incubation with Cath A for up to two hours [1]: Aβ40 peptide did not aggregate after pre-incubation with Cath A
- THT aggregation of Aβ40 with simultaneous incubation with Cath A [1]: aggregation of Aβ40 amyloid is not affected by Cath A, in applied experimental settings, even when high concentration of enzyme is used
- western blot of Aβ40 co-incubated with Cath A for up to 9 days during fibril formation [2]: Cath A significantly prevents formation of high molecular weight fibrils
- western blot (E610) of day 9 Aβ42 fibrils after overnight treatment with 90 ng enzyme (Aβ42 fibrils, P05067): resulted in reduction/degradation of the fibril smear as well as degradation of oligomer species (line 4 compared to line 1)
- western blot (A11) of day 9 Aβ42 oligomers after overnight treatment with 90 ng enzyme (Aβ42 oligomers, P05067): resulted in degradation of the lowest oligomer band (line 4)
- Aβ42 aggregation by THT assay and western blot [3]: PPCA can efficiently prevent formation of Aβ42 amyloid species
- human Aβ42 specific ELISA signal after treatment with 90 ng cathepsin A (0-120 min, 37° C., pH 5.0) [3]: a loss of fluorescent signal already within first 10 min of treatment
